# Results published in patent publication US20240408238.
# B1: Nme2Cas9 (recombinant, purified; Neisseria meningitidis strain De11444) (protein)
# chain: PKKKRKVNAMAAFKPNPINYILGLDIGIASVGWAMVEIDEEENPIRLIDLGVRVFERAEVPKTGDSLAMARRLARSVRRLTRRRAHRLLRARRLLKREGVLQAADFDENGLIKSLPNTPWQLRAAALDRKLTPLEWSAVLLHLIKHRGYLSQRKNEGETADKELGALLKGVANNAHALQTGDFRTPAELALNKFEKESGHIRNQRGDYSHTFSRKDLQAELILLFEKQKEFGNPHVSGGLKEGIETLLMTQRPALSGDAVQKMLGHCTFEPAEPKAAKNTYTAERFIWLTKLNNLRILEQGSERPLTDTERATLMDEPYRKSKLTYAQARKLLGLEDTAFFKGLRYGKDNAEASTLMEMKAYHAISRALEKEGLKDKKSPLNLSSELQDEIGTAFSLFKTDEDITGRLKDRVQPEILEALLKHISFDKFVQISLKALRRIVPLMEQGKRYDEACAEIYGDHYGKKNTEEKIYLPPIPADEIRNPVVLRALSQARKVINGVVRRYGSPARIHIETAREVGKSFKDRKEIEKRQEENRKDREKAAAKFREYFPNFVGEPKSKDILKLRLYEQQHGKCLYSGKEINLVRLNEKGYVEIDHALPFSRTWDDSFNNKVLVLGSENQNKGNQTPYEYFNGKDNSREWQEFKARVETSRFPRSKKQRILLQKFDEDGFKECNLNDTRYVNRFLCQFVADHILLTGKGKRRVFASNGQITNLLRGFWGLRKVRAENDRHHALDAVVVACSTVAMQQKITRFVRYKEMNAFDGKTIDKETGKVLHQKTHFPQPWEFFAQEVMIRVFGKPDGKPEFEEADTPEKLRTLLAEKLSSRPEAVHEYVTPLFVSRAPNRKMSGAHKDTLRSAKRFVKHNEKISVKRVWLTEIKLADLENMVNYKNGREIELYEALKARLEAYGGNAKQAFDPKDNPFYKKGGQLVKAVRVEKTQESGVLLNKKNAYTIADNGDMVRVDVFCKVDKKGKNQYFIVPIYAWQVAENILPDIDCKGYRIDDSYTFCFSLHKYDLIAFQKDEKSKVEFAYYINCDSSNGRFYLAWHDKGSKEQQFRISTQNLVLIQKYQVNELGKEIRPCRLKKRPPVRGGGGSGGGGSGGGGSPAAKKKKLDGGGSKRPAATKKAGQAKKKK
# B2: Nme1Cas9 (Cas9 of Neisseria meningitidis strain 8013) (protein)
# chain: MAAFKPNSINYILGLDIGIASVGWAMVEIDEEENPIRLIDLGVRVFERAEVPKTGDSLAMARRLARSVRRLTRRRAHRLLRTRRLLKREGVLQAANFDENGLIKSLPNTPWQLRAAALDRKLTPLEWSAVLLHLIKHRGYLSQRKNEGETADKELGALLKGVAGNAHALQTGDFRTPAELALNKFEKESGHIRNQRSDYSHTFSRKDLQAELILLFEKQKEFGNPHVSGGLKEGIETLLMTQRPALSGDAVQKMLGHCTFEPAEPKAAKNTYTAERFIWLTKLNNLRILEQGSERPLTDTERATLMDEPYRKSKLTYAQARKLLGLEDTAFFKGLRYGKDNAEASTLMEMKAYHAISRALEKEGLKDKKSPLNLSPELQDEIGTAFSLFKTDEDITGRLKDRIQPEILEALLKHISFDKFVQISLKALRRIVPLMEQGKRYDEACAEIYGDHYGKKNTEEKIYLPPIPADEIRNPVVLRALSQARKVINGVVRRYGSPARIHIETAREVGKSFKDRKEIEKRQEENRKDREKAAAKFREYFPNFVGEPKSKDILKLRLYEQQHGKCLYSGKEINLGRLNEKGYVEIDHALPFSRTWDDSFNNKVLVLGSENQNKGNQTPYEYFNGKDNSREWQEFKARVETSRFPRSKKQRILLQKFDEDGFKERNLNDTRYVNRFLCQFVADRMRLTGKGKKRVFASNGQITNLLRGFWGLRKVRAENDRHHALDAVVVACSTVAMQQKITRFVRYKEMNAFDGKTIDKETGEVLHQKTHFPQPWEFFAQEVMIRVFGKPDGKPEFEEADTLEKLRTLLAEKLSSRPEAVHEYVTPLFVSRAPNRKMSGQGHMETVKSAKRLDEGVSVLRVPLTQLKLKDLEKMVNREREPKLYEALKARLEAHKDDPAKAFAEPFYKYDKAGNRTQQVKAVRVEQVQKTGVWVRNHNGIADNATMVRVDVFEKGDKYYLVPIYSWQVAKGILPDRAVVQGKDEEDWQLIDDSFNFKFSLHPNDLVEVITKKARMFGYFASCHRGTGNINIRIHDLDHKIGKNGILEGIGVKTALSFQKYQIDELGKEIRPCRLKKRPPVR
protein,measurement,setting,value
B1,in vitro DNA cleavage by Cas9:sgRNA in the presence of Acr (10:1 Acr:Cas9 molar ratio),AcrIIC3Nme,completely inhibited Nme2Cas9
same,in vitro DNA cleavage by Cas9:sgRNA in the presence of Acr (10:1 Acr:Cas9 molar ratio),AcrIIC2Nme,completely inhibited Nme2Cas9
same,in vitro DNA cleavage by Cas9:sgRNA in the presence of Acr (10:1 Acr:Cas9 molar ratio),AcrIIC5Smu,did not inhibit Nme2Cas9 in vitro even at a 10-fold molar excess
same,in vitro DNA cleavage by Cas9:sgRNA in the presence of Acr (10:1 Acr:Cas9 molar ratio),AcrIIC1Nme,completely inhibited Nme2Cas9
same,in vitro DNA cleavage by Cas9:sgRNA in the presence of Acr (10:1 Acr:Cas9 molar ratio),AcrIIC4Hpa,completely inhibited Nme2Cas9
B2,in vitro DNA cleavage by Cas9:sgRNA in the presence of Acr (10:1 Acr:Cas9 molar ratio),AcrIIC3Nme,all 5 families inhibited Nme1Cas9
same,in vitro DNA cleavage by Cas9:sgRNA in the presence of Acr (10:1 Acr:Cas9 molar ratio),AcrIIC2Nme,all 5 families inhibited Nme1Cas9
same,in vitro DNA cleavage by Cas9:sgRNA in the presence of Acr (10:1 Acr:Cas9 molar ratio),AcrIIC5Smu,all 5 families inhibited Nme1Cas9
same,in vitro DNA cleavage by Cas9:sgRNA in the presence of Acr (10:1 Acr:Cas9 molar ratio),AcrIIC1Nme,all 5 families inhibited Nme1Cas9
same,in vitro DNA cleavage by Cas9:sgRNA in the presence of Acr (10:1 Acr:Cas9 molar ratio),AcrIIC4Hpa,all 5 families inhibited Nme1Cas9
same,in vitro DNA cleavage by Cas9:sgRNA in the presence of Acr (10:1 Acr:Cas9 molar ratio),AcrE2,AcrE2 failed to do so
